Measurements published in publication PMC11233918.
Like-named read-outs stand apart in the source and are kept apart here.

Tests used:
Assay in all cases: EMSA
SUMO-TDP-43 RRM1,2 [1] = target: T1, SUMO-TDP-43 RRM1,2 (human, UniProt Q13148 102-269)
SUMO-TDP-43 RRM1,2 [2] = target: T1, SUMO-TDP-43 RRM1,2; remark: listed apart in the source
SUMO-TDP-43 RRM1,2 [3] = target: T1, SUMO-TDP-43 RRM1,2; remark: listed apart in the source
SUMO-TDP-43 RRM1,2 [4] = target: T1, SUMO-TDP-43 RRM1,2; remark: listed apart in the source

T1 sequence (Q13148 102-269): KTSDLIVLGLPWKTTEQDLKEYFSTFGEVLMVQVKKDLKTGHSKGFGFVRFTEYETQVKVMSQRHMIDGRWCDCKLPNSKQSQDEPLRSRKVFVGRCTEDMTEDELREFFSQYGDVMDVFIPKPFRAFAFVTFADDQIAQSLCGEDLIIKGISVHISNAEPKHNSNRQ

GUGUGAAUGAAUGUGUGAAUGAAU (ssRNA, 2'-O-methyl and phosphorothioate; positions in Table S1 (not in material)) [('AUG12')2]
binding result (SUMO-TDP-43 RRM1,2 [1]): binds

GUGUGUGUGUGU (ssRNA, see Table S1 (not in material)) [(GU)6]
binding result (SUMO-TDP-43 RRM1,2 [2]): binds

GUGUGUGUGUGUGUGUGUGUGUGUGUGUGUGU (ssRNA, 2'-O-methyl and phosphorothioate; positions in Table S1 (not in material)) [(GU)16]
binding result (SUMO-TDP-43 RRM1,2 [3]): binds

CACACACACACACACACACACACACACACACA (ssRNA, see Table S1 (not in material)) [(CA)16]
binding result (SUMO-TDP-43 RRM1,2 [4]): no binding

AAAAAAAAAAAAAAAAAAAAAAAAAAAAAAAA (ssRNA, see Table S1 (not in material)) [A32]
binding result (SUMO-TDP-43 RRM1,2 [4]): no binding
